# Data from patent US20240376225A1 (CHILDREN S MEDICAL CENTER, published 2024).
# Read-outs that look alike come from different tables or passages of the source.
# T1: human CD21 protein (human, UniProt P20023 21-971, limits assumed)
# T1 construct: the Biacore set-up is not described; also called huCD21; CR2
# T1 sequence (looked up): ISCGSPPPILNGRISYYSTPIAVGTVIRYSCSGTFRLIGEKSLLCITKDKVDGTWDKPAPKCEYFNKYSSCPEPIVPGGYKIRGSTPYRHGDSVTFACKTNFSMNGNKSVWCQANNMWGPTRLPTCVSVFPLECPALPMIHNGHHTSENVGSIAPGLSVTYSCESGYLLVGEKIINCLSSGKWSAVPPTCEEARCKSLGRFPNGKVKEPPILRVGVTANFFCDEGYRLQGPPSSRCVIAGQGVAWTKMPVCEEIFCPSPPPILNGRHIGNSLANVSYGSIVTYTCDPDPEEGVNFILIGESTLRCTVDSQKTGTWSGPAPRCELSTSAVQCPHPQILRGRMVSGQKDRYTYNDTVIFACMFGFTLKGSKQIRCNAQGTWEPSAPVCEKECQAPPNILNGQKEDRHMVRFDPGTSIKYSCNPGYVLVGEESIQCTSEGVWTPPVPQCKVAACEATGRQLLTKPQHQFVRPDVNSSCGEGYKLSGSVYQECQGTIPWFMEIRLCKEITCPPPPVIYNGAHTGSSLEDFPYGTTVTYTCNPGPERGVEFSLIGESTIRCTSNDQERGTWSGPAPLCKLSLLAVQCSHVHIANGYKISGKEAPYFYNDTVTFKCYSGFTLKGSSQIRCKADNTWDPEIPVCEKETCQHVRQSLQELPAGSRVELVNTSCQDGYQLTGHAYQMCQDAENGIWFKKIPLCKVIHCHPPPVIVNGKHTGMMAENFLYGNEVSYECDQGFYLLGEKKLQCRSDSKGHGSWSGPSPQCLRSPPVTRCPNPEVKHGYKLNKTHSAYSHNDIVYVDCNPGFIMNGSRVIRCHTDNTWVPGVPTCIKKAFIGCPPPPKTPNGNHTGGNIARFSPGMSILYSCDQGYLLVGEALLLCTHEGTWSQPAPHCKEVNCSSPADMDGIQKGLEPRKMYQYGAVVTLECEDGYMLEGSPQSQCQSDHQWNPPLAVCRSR
# T2: human CD21 on Raji B cells or primary B cells (human, UniProt P20023 21-1033)
# T2 sequence (looked up): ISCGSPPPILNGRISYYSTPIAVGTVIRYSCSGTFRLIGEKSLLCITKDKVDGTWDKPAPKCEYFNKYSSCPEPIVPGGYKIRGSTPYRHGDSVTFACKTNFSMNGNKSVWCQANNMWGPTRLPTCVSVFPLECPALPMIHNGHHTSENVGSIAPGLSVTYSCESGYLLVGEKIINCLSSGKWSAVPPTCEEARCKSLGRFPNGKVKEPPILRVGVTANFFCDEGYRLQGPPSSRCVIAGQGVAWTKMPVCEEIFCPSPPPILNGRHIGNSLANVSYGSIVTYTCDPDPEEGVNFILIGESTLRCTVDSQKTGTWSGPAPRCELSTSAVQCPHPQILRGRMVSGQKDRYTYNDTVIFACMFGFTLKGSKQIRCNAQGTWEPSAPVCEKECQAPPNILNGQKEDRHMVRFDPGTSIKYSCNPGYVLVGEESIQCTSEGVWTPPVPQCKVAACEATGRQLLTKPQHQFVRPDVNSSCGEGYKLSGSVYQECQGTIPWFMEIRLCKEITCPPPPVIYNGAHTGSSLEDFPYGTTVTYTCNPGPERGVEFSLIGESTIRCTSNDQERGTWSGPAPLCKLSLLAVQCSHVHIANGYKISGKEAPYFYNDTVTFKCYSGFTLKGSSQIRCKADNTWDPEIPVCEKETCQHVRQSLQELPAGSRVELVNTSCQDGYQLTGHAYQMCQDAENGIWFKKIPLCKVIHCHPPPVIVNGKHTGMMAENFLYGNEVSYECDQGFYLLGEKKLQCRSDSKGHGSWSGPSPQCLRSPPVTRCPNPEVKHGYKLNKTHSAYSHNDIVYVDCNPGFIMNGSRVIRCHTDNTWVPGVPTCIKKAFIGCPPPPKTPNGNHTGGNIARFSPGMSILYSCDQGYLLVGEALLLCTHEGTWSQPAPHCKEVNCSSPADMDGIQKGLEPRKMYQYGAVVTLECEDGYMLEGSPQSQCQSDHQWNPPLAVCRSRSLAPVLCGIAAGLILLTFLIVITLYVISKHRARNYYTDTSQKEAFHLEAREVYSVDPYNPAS
# Key:
# [1] = molecular target: cyno CD21 protein (cynomolgus monkey); experiment: SPR (Biacore)
# human CD21 protein [2] = molecular target: T1, human CD21 protein; experiment: SPR (Biacore)
# [3] = molecular target: T2, human CD21 on Raji B cells or primary B …; experiment: cell-based or functional assay
# [4] = molecular target: T2, human CD21 on Raji B cells or primary B …; experiment: cell-based or functional assay; remark: listed apart in the source
# [5] = molecular target: cyno CD21 protein (cynomolgus monkey); experiment: affinity KD; method not restated (Biacore elsewhere)
# human CD21 protein [6] = molecular target: T1, human CD21 protein; experiment: as above
# insulin = insulin (UniProt P01308); experiment: polyreactivity ELISA on coated insulin; third number of the cell
# [7] = molecular target: cyno CD21 protein (cynomolgus monkey); experiment: SPR (Biacore); remark: listed apart in the source
# human CD21 protein [8] = molecular target: T1, human CD21 protein; experiment: SPR (Biacore); remark: listed apart in the source
# [9] = molecular target: cyno CD21 protein (cynomolgus monkey); experiment: SPR (Biacore), KD against Ab89
# human CD21 protein [10] = molecular target: T1, human CD21 protein; experiment: SPR (Biacore), KD against Ab89
# [11] = molecular target: T2, human CD21 on Raji B cells or primary B …; experiment: competition with human C3d on Raji B cells
# [12] = molecular target: T2, human CD21 on Raji B cells or primary B …; experiment: competition with human C3d on primary B cells
# human CD21 protein [13] = molecular target: T1, human CD21 protein; experiment: affinity KD; method not restated (Biacore elsewhere); remark: listed apart in the source
# insulin, sequence (P01308 25-54 limits assumed, chain 1 of 2): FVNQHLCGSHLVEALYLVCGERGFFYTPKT
# insulin, sequence (P01308 90-110 limits assumed, chain 2 of 2): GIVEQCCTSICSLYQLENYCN
Binder,Kd [1] [nM],Kd (human CD21 protein [2]) [nM],"pAKT inhibition, IC50, nM; Primary B cells [3] [nM]","pAKT inhibition, IC50, nM; Raji B cells [3] [nM]","pAKT inhibition, IC50, nM; Primary B cells [4] [nM]","pAKT inhibition, IC50, nM; Raji B cells [4] [nM]",Kd [5] [nM],Kd (human CD21 protein [6]) [nM],insulin-binding score (ratio to buffer well) (insulin),Kd [7] [nM],Kd (human CD21 protein [8]) [nM],fold improvement of KD over Ab89 [9] [fold],fold improvement of affinity over Ab89 (human CD21 protein [10]) [fold],IC50 [11] [nM],IC50 [12] [nM],Kd (human CD21 protein [13]) [nM]
"Ab424 (antibody, human IgG1, kappa, V domains shown, IgG1) VH: QVQLVQSGAEVKKPGSSVKVSCKASGGTFSTYAISWVRQAPGQGLEWMGRIIPILGIANYAQKFQGRVTITADKSTSTAYMELSSLRSEDTAVYYCAREDDISGYYQDWGQGTLVTVSS VL: EIVMTQSPATLSVSPGERATLSCRAGQSINSYLAWYQQKPGQAPRLLIYDASTRATGIPARFSGSGSGTEFTLTISSLQSEDFAVYYCQQYEYWYTFGQGTKLEIKR",0.03,0.05,11.6,9.38,11.6,9.38,0.03,0.05,2,–,–,–,–,–,–,–
"Ab422 (antibody, human IgG1, kappa, V domains shown, IgG1) VH: QVQLVQSGAEVKKPGSSVKVSCKASGGELQTLAISWVRQAPGQGLEWMGRIIPILGIANYAQKFQGRVTITADKSTSTAYMELSSLRSEDTAVYYCAREDDISGYYQDWGQGTLVTVSS VL: EIVMTQSPATLSVSPGERATLSCRAGQSINSYLAWYQQKPGQAPRLLIYDASTRATGIPARFSGSGSGTEFTLTISSLQSEDFAVYYCQQYEYWYTFGQGTKLEIKR",0.24,0.04,9.98,15.8,9.98,15.8,0.24,0.04,2,–,–,–,–,–,–,–
"Ab204 (antibody, human IgG1, kappa, V domains shown, full-length human IgG1) VH: QVQLVQSGAEVKKPGSSVKVSCKASGGELQDLAISWVRQAPGQGLEWMGRIIPILGIANYAQKFQGRVTITADKSTSTAYMELSSLRSEDTAVYYCAREDDISGYYQDWGQGTLVTVSS VL: EIVMTQSPATLSVSPGERATLSCRAGQSINSHLAWYQQKPGQAPRLLIYDASTRATGIPARFSGSGSGTEFTLTISSLQSEDFAVYYCQQYEYWYTFGQGTKLEIKR",–,–,–,–,–,–,–,–,–,0.06,0.81,357,~81,0.005,0.007,–
"Ab646 (antibody, human IgG1, kappa, V domains shown, IgG1) VH: QVQLVQSGAEVKKPGSSVKVSCKASGGELQTLAISWVRQAPGQGLEWMGRIIPILGIANYAQKFQGRVTITADKSTSTAYMELSSLRSEDTAVYYCAREEDISGYYQDWGQGTLVTVSS VL: EIVMTQSPATLSVSPGERATLSCRAGQSISSYLAWYQQKPGQAPRLLIYDASSRATGIPARFSGSGSGTEFTLTISSLQSEDFAVYYCQQYEYWYSFGQGTKLEIKR",–,–,–,–,–,–,0.05,0.01,1,–,–,–,–,–,–,0.01

# Other lines, results leading:
Kd [1] [nM],Kd (human CD21 protein [2]) [nM],"pAKT inhibition, IC50, nM; Primary B cells [3] [nM]","pAKT inhibition, IC50, nM; Raji B cells [3] [nM]","pAKT inhibition, IC50, nM; Primary B cells [4] [nM]","pAKT inhibition, IC50, nM; Raji B cells [4] [nM]",Kd [5] [nM],Kd (human CD21 protein [6]) [nM],insulin-binding score (ratio to buffer well) (insulin),Kd [7] [nM],Kd (human CD21 protein [8]) [nM],fold improvement of KD over Ab89 [9] [fold],fold improvement of affinity over Ab89 (human CD21 protein [10]) [fold],IC50 [11] [nM],IC50 [12] [nM],Kd (human CD21 protein [13]) [nM],Binder
0.25,2.26,56.2,8.59,56.2,8.59,0.25,2.26,2,–,–,–,–,–,–,–,"Ab421 (antibody, human IgG1, kappa, V domains shown, IgG1) VH: QVQLVQSGAEVKKPGSSVKVSCKASGGTFSTYAISWVRQAPGQGLEWMGRIIPILGIANYAQKFQGRVTITADKSTSTAYMELSSLRSEDTAVYYCAREDDISGYYQDWGQGTLVTVSS VL: EIVMTQSPATLSVSPGERATLSCRAGQSINSHLAWYQQKPGQAPRLLIYDASTRATGIPARFSGSGSGTEFTLTISSLQSEDFAVYYCQQYEYWYTFGQGTKLEIKR"
–,–,–,–,–,–,–,–,–,9.16,0.81,2,~81,0.009,0.006,–,"Ab194 (antibody, human IgG1, kappa, V domains shown, full-length human IgG1) VH: QVQLVQSGAEVKKPGSSVKVSCKASGGTFSTYAISWVRQAPGQGLEWMGRIIPILGIANYAQKFQGRVTITADKSTSTAYMELSSLRSEDTAVYYCAREDDSSGYYQDWGQGTLVTVSS VL: EIVMTQSPATLSVSPGERATLSCRAGQSINSYLAWYQQKPGQAPRLLIYDASTRATGIPARFSGSGSGTEFTLTISSLQSEDFAVYYCQQYEYWYTFGQGTKLEIKR"
